B1: wild-type ARE[-186] TARP promoter oligo (dsDNA)
DNA 1: GCAAGGTGAGGTCAGTTCTTAAA
DNA 2: TTTAAGAACTGACCTCACCTTGC
B2: mutated ARE[-186] oligo (dsDNA)
DNA 1: GCAAGGTGTGGTCAACTATTAAA
DNA 2: TTTAATAGTTGACCACACCTTGC

Columns and labels:
[1] = biological target: T1, Androgen receptor (AR), full-length (Homo sapiens, UniProt P10275 P10275:1-920); assay: EMSA; 10 nM R1881, 30 mM KCl, 2 mM MgCl2, pH 7.5, poly(dI-dC); abolished by 100-fold unlabeled wild-type competitor; settings: tags: none stated; cDNA from pSVAR0 in pBluescript II SK+, T7/wheat germ extract (Promega); chain copies: 2; label: 32P 5' end
Text: (§1) Double-stranded oligonucleotides constituting either the wild-type ARE or a mutated version thereof at −186, relative to the TARP transcription initiation site, were 5′end labeled with […] using T4 polynucleotide kinase (Amersham Bioscience, Piscataway, N.J.). The wild-type oligonucleotide sequence was […] and includes the ARE[−186] sequence of the TARP promoter. The corresponding oligonucleotide sequence with the mutated version of the ARE[−186] was […]. Full-length human AR cDNA was subcloned from PSVAR0 (Brinkmann et al., J. Steroid Biochem., 34: 307-310, 1989) to pBluescript II SK+ (Stratagene). In vitro-translated human AR was produced by transcription-coupled translation by using T7 RNA polymerase and wheat germ extract (Promega). Translated AR was incubated with either wild-type ARE[−186] probe or mutated ARE[−186] probe in a buffer containing 20 mM HEPES (pH 7.5), 30 mM KCl, 2 mM MgCl₂, 1 mM EDTA, 1 mM dithioerythritol, 1 mM phenylmethylsulfonyl fluoride, 10 nM R1881, 15% glycerol, 1 μg poly(dI-dC)poly(dI-dC) and 1 μg BSA. Samples were resolved by electrophoresis on 5% TBE/polyacrylamide gels. The gels were dried and subjected to autoradiography.

[2] = biological target: T1, Androgen receptor (AR), full-length; assay: EMSA; 10 nM R1881, 30 mM KCl, 2 mM MgCl2, pH 7.5, poly(dI-dC); settings: tags: none stated; cDNA from pSVAR0 in pBluescript II SK+, T7/wheat germ extract (Promega); chain copies: 2; label: 32P 5' end
Text: as §1

T1 sequence (P10275 whole entry, one chain of several): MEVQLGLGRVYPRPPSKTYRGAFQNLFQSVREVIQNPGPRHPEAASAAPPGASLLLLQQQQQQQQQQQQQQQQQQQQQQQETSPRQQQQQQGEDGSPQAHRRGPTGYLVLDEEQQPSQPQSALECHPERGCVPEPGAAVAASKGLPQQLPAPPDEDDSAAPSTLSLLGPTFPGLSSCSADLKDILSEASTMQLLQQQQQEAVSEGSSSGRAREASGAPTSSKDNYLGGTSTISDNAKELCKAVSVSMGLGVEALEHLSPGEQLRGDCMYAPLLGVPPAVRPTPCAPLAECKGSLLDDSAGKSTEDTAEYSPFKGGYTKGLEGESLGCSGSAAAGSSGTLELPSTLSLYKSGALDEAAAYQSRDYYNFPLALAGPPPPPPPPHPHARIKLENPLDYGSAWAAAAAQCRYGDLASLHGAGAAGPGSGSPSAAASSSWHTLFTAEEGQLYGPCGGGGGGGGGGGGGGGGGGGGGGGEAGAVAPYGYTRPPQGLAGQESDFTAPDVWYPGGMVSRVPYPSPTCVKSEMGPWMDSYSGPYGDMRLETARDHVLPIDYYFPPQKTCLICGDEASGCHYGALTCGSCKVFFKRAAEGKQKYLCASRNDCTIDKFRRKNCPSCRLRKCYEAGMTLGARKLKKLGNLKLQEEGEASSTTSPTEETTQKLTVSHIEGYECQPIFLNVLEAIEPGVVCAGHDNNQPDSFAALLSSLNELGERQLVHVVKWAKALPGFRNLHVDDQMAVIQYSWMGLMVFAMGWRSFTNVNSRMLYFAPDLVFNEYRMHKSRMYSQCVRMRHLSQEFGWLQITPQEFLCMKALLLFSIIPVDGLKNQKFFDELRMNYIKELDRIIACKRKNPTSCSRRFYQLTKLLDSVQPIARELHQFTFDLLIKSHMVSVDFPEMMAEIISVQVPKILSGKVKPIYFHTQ

Binder | binding result [1] | binding result [2]
B1 | binds | –
B2 | – | no binding
